According to paper PMC9695642, “Conservation of Importin α Function in Apicomplexans: Ivermectin and GW5074 Target Plasmodium falciparum Importin α and Inhibit Parasite Growth in Culture” (International Journal of Molecular Sciences, 2022):

Assays:
[1] = target: His-tagged GCN5-NLS-GFP (NLS of T. gondii histone acetyltransferase GCN5 fused to GFP) (Toxoplasma gondii); experiment: AlphaScreen or HTRF; biotinylated IMPαs titrated against His-tagged NLS-GFPs (30 nM); apparent dissociation constant
[2] = target: His-tagged TGS1-NLS-GFP (NLS of P. falciparum trimethylguanosine synthase fused to GFP) (Plasmodium falciparum); experiment: as above

B1: Plasmodium falciparum importin α, biotinylated GST fusion protein (natural protein)
chain: MDRRIEARRKEFKKNCDDTRRKREDLVVQIRKQQRECQLESKRAMVMANIGFEENNTYNLNYAKGNQNDSTNDSIYNTSSNNSSNTLEMLKKIPTLAIGVRSNEYVTQLNSTRELRKLLSIEKGPPIQEVINSGVVPYIVEFLKYDDKTDLQFEAAWVITNIASGSQEQTKVVIDNNAVPHLVRLLSSEKEDVCEQAVWALGNIAGDSAECREYVLNQNSLPLLLKILRTSHKRTLIRNAAWTLSNLCRGKPAPKFEIVSKALPTLAALIYNDDEEILTDACWTLSYLSDGSNENINSVLDAGVAERVVELLSHCSFLVQTPALRTVGNIVTGDDLQTDVVVKLGAVQKLSCLLNSSKKSIKKEACWALSNITAGNISQIQAVIDNNVIPQLINILMKEDFEVRKEAAWAISNASSGGSELQIEYLVECGAIHSLSNLLDVEDANIISVTLEGLENILEMGENKKLRDNLPTNPYVHLFEECDSVHKIDALQDRKVDNICNKAWKILYKYFPFVINNELNNAQIPLNNVFANTEDAVLNKDFTFD
modifications: biotin (Sulfo-NHS-Biotin reagent)
- Kd [1]: 2.5 nM
- Kd [2]: 6.6 nM
